In the nanobody polyreactivity screen of Harvey et al. (2022):

Test: yeast display, Sf9 membrane polyspecificity reagent, FACS + sequencing; frameworks hold sequencing errors
How it was run: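 In a synthetic yeast display library (Saccharomyces cerevisiae BJ5465), nanobody expression was induced with galactose for 36–48 hours. FACS gates were set low and high (top ~1%) using anti-HA fluorescence for expression and streptavidin fluorescence for binding of the Sf9 membrane reagent. Each polyreactivity label is drawn from the gate of origin.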

Sequence | polyreactivity (PSR sort gate)
QVQLVESGGGLVQAGGSLRLSCAASGSTFRYYVMGWYRQEPGKEREFVAAISAGGGRTYYADSVKGRFTISRDNSKNTVYLQMNSLKPEDTAVYYCAATKGNILRRSRYDYWGQGTQVTVSS | high polyreactivity
QVQLVDSGGGLVQAGGSLGLSCAASGSIVKYYAMGWYRQAPGKEREVVAAISSIGGRPYYADSVKGRFTISRDNAKNTVYLQRNSLKPEDTSVFYCARRFRRTGESEYEYWGQGTQVTVSS | high polyreactivity
QVQLVESGGGLVQAGGSLRLSCAASGLIFGVNAMGWYRQAPGKERELVAAISWSGSSTNYADSVKGRFTISRDNAKNTVYLQMNSLKPEDTAVYYCATDQGYRYLKIYVYGDAFDYWGQGTQVTVSS | low polyreactivity
QVQLVESGGGIVQAGGSLRLSCAASGFTFIRYAMLWYRQAPGIERELVAAITSSGGSTYSADSVKGRFTISRDNAKNTVYLQKNSLKPEDTAVYYCATVYSGPVRAIGYDYWGQGTQVTVSS | high polyreactivity
QVQLVESGGGLVQAGGSLRLSCAASGLTFPYYAMGWYRQAPGTERELVAVITTSTGTTYYADSVKGRFTMSRDNAKNTVYLQMNSLKPEDTAVYYCATDTGAYWFSLYDYWGQGTQVTVSS | low polyreactivity
QVQLVESGGGLVQAGGSLRLSCAASGFAFSHYAMGWYRQAPGKERELVAAISWGGGSTYYADSVKGRFTISRDNAKNTVYLQMNSLRPEDTAVYYCAASIWLRYHWGYDYWGQGTQVTVSS | high polyreactivity
QVQLVESGGGLVQAGGSLRLSCAASGRIFSTYAMGWYRQAPGKERELVAAITWDGRTYYADSVKGRFTISRDNAKNTVYLQMNSLKPEDTAVYYCAADGEYRYDWEYESWGQGTQVTVSS | low polyreactivity
QVQLVESGRGFVQAGGSLRLSCADSGSTFRYYAMGWYRQAPGKERELVAAISWSGGSTYYADSVKGRFTISRDNAKNTVYLQMNSLKPEDTAVYYCAAEVYLVGSRWGPRYGDYWGQGTQVTVSS | high polyreactivity
QDQLVESGGGLVQAGGSLRLSCAAYGSTFERYVMGWYRQAPGKDRELVADINSGGSTNYADSVKGRFTISRDNAKNTVYLQMNSLKPEDTAVYYCAKDGWGGWWFPYRVKYGYWGQGSQVTVSS | low polyreactivity
QVQLVESGGGLVQAGGSLRLSCAASGFIFYKYAMGWYRQAPGKERELVARISISGGRTYYADSVKGRFPISRDNAKNTVYLQMNSLKPEDTAVYYCATSPWWYGYAAYGMDYWGQGTQVTVSS | low polyreactivity
QVQHVESGGGLVQAGGSLRLSCAASGRIFYLNAMGWYRQAPGKERELVAAISRVGRTNYADSVKGRFTISRDNAKNTVYLQMNSLKPEDTAVYYCAAVYYSVNGRHGYWGQGTQVTVSS | high polyreactivity
QVQLVESGGGLVQAGGSLRLSCAAYGSNFYLYAMGWYRQAPGKERELVAAITRGGTTNYADSVKGRFTISRDNAKNTVYLQMNSLKPEDTAVYYCAKEVTTLLSLYEIVDRDYWGQGTQVTVSS | low polyreactivity
QVQLVESGGGLVQAGGSLRLSCAASGFIFDGYAMGWYRQAPGKERELVADISSVGSTYYADSVKGRFTISRDNAKNTVYLQMNSLKPEDTAVYYCAAVRFYTYNYWGQGTQVSVSS | low polyreactivity
QVQLVESGGGLVQAGGSLRLSCAASGRTFAKYAMGWSRPAPGKERELVAAIRWSGGSTYYADSVKGRFTISRDNAKNTVYLQMTSLKPEDTAVYYCATERFVLGLGYDYWGQGTQVTVSS | high polyreactivity
QVQLVESGGGLVQAGGSLRLSCAASGLTFRRYGMGWYRQAPGKERELVASISSRGGNTYYADSVKGRFTISRDNAKNTVYLQMNSLKPEDTAVYYCATGVSTRYEYWGQGTQVTVSS | high polyreactivity
QVQLVESGGGLVQAGGSLRLSCAASGSILQVYAMGWYRQAPGKERELFADINYTTGSTYYADSVKGRFTISRDNAKNTVYLQMNSLKPEDTAVYYCAKDFGFQSDSWGQGTQVTVSS | low polyreactivity
QVQLVESGGGLVQAGGSLRLSCAASGSTFTQYVMGWYRQAPGKERELVAAISDSGSTYYADSVKGRFTISRDNAKNTVYLQMNSLKPEDTAVYYCNADDVEFYYGYGYLDYDYWGQGTQVTVSS | low polyreactivity
QVQLVESGGGLVQAGGSLRLSCAASGIIFYDYAMGWSRQAPGKERELVATITRGGGTKYADSVKGRFTISRDNAKNTVYLQMNSLKPEDTAVYYCAADSHGVYEGDYWGQGTQVTVSS | low polyreactivity
QVQLVESGVGLVQAGGSLRLSCAASGLILRKYAKGWYSQAPGKEREFVAAITQTGSRTYYADSVKGRFTISRDNAKNTVYLQMNSLKPEDTAVYYCNAVNYRSSRDSGYWGQGTQVTVSS | high polyreactivity
QVQLVESGGGLVQAGGSLRLSCAASGNLFDYYAMGWYRQAPGKERELVAAISTGTSTYADSVKGRFTISRDNAKNTVYLQMNSLKPEDTAVYYCAADVGIRPLNYHPYNYWGQGTQVTVSS | low polyreactivity
QVQLVESGGGLVQAGGSLRLSCAASGSIFTYYAMGWYRQAPGKERELVAAIDFSGASTSYADSVKGRFTISRDNAKNTVYLQMNSLKPEDTAVYYCAAVLYWYPPYYYWGQGTQVTVSS | low polyreactivity
QVQLVESGGGLVQAGGSLRLSCAASGITFWSNAMGWYRQAPGKERELVAAITSGGNTNYADSVKGRFTISRDNAKNTVYLQMNSLKPEDTAVYYCAKRWTAREPWRKGMGYWGQGTQVTVSS | high polyreactivity
